According to publication PMC9543391, “ERp57 chaperon protein protects neuronal cells from Aβ‐induced toxicity” (Journal of Neurochemistry, 2022):
“Also recorded” adds a separate entry of the source. Peptide text beside a SMILES is read from it.

Experiments:
AD 5XFAD mice model = conditions: activation of ERp57, cerebral cortex and hippocampus, ref Tohda et al., [2012]; cited from earlier work
Source text: ERp57 has been previously linked to key processes in neurodegeneration and particularly in AD pathogenesis.

tau = test system: tau; design: method as in Xu et al., [2013]; conditions: within the cell; ref Xu et al., [2013]; cited from earlier work
SH‐SY5Y cells = assay: MTT cell viability assay; assay type: cell-based, human
Experimental: For the cell viability experiments, 96‐well plates were seeded with 10 000 cells/well. After 24 h, cells were treated with 30 μM Aβ25−35 aggregated for 72 h in the presence or in the absence of 0.12 μM of ERp57 or GST recombinant proteins (in a 1:250 ratio), in a final volume of 150 μl per well. Plates were incubated for 24 h in an incubator at 37°C, 5% of CO2, and 99% RH. Thereafter, 20 μl of (3‐[4,5‐Dimethylthiazol‐2‐yl]‐2,5‐Diphenyltetrazolium Bromide) (MTT) dye (stock solution 5 mg/ml in PBS) (catalog number #M2003) was added to the wells and incubated for additional 2 h at 37°C and 5% CO2. Water‐insoluble formazan crystals were dissolved in 100 μl of DMSO (catalog number #472301). For spectrophotometric measurements, Appliscan® plate reader (Thermo scientific) was used at the wavelength 570 nm, with reference set at 690 nm.

ERp57 = target: T1, ERp57 (Homo sapiens, UniProt P30101); assay: Surface plasmon resonance, Aβ25−35 binding to immobilized ERp57; conditions: SPR, ERp57 on COOH5 sensorchip; global fitting with one binding site; non-aggregated Aβ25−35 15.6 μM–1.0 mM; HBSP buffer pH 7.4; 25°C; read-out: overall K D
T1 construct: made in house; host or cells: E. coli BL21, vector pET21
T1 sequence (P30101 25-505): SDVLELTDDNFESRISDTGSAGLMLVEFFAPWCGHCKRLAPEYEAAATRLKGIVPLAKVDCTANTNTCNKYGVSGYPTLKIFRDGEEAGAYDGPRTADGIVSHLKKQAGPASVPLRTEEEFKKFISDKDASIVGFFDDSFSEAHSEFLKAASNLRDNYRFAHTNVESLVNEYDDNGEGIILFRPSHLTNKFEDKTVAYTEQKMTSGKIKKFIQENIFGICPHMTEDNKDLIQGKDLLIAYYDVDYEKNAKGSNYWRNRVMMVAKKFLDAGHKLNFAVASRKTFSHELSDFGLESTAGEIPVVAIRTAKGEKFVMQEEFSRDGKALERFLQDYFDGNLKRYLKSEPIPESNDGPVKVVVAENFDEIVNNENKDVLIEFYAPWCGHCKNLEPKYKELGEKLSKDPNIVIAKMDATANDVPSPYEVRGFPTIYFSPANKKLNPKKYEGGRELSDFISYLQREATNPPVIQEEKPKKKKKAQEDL
Source text: Human recombinant PDIA3 was cloned and expressed in E. coli strain BL21 (Invitrogen™, catalog number C600003) using the expression vector pET21 (Novagen, catalog number 69770) as described by Coppari (Coppari et al., [2002]). The coding sequence for the second redox‐active domain (aʹ domain, residues 377–505) was amplified by PCR as previously described and cloned in the expression vector pET29 (Novagen) (Grillo et al., [2002]). Recombinant proteins were expressed in E. coli strain BL21 and purified by ammonium sulfate fractionation, ion exchange, and heparin chromatography (Grillo et al., [2006]). Protein purification was evaluated by SDS‐PAGE and concentration was determined spectrophotometrically (PDIA3 Ɛ280 reduced form = 44 810 M^−1 cm^−1, aʹ domain Ɛ280 reduced form = 14 400 M^−1 cm^−1). Rabbit anti‐ERp57 primary antibody will be shared upon reasonable request.
SPR experiments were performed with a SensiQ Pioneer apparatus. […] The amount of immobilized ERp57 was detected by mass concentration‐dependent changes in the refractive index on the sensorchip surface and corresponded to about 4000 resonance units (RU). […] Values of the plateau signal at steady‐state (Req) and full fittings with 1, 2, and 3 sites were calculated from kinetic evaluation of the sensorgrams using the Qdat 4.0 program.

full‐length APP = conditions: permeabilized cells; ref Selivanova et al., [2007]; cited from earlier work
Source text: (§1) As previously reported (Williams, [2006]), it is known that ERp57 together with calreticulin and calnexin forms a complex capable of interacting with glycoproteins, including APP, at the […] level, and therefore it can be hypothesized that the contact regions between ERp57 and APP are maintained at least in part also by Aβ, despite the cuts suffered by the secretases.

c99 fragment of APP = conditions: c99 generated by β-secretase; ref Selivanova et al., [2007]; cited from earlier work
Source text: as §1

pre‐aggregated Aβ25−35 = assay: Thioflavin-T assay, reversal of pre-aggregated Aβ25−35; assay type: biochemical; conditions: Aβ25−35 aggregated alone 24 h, then 72 h with increasing concentrations of ERp57; n = 3
Experimental: Thioflavin‐T assay was used to assess the aggregation of the Aβ25−35. Thioflavin‐T (catalog number #T3516) was prepared in glycine buffer (0.05 M, pH 8.5) (catalog number #G8898), to a final concentration of 5 μM, in order to be saturated by Aβ25−35 (10 μM). Aβ25−35 was aggregated either alone or in the presence of 0.04 μM ERp57 or GST recombinant protein (in a 1:250 ratio). The assay was performed using a spectrofluorometer Spex Fluoromax® at 25°C; the excitation wavelength was set at 440 nm (5 nm band width) and the fluorescence was measured between 450 and 520 nm (5 nm band width) (Francioso et al., [2020]).
Having ascertained the ability of ERp57 to block the aggregation process, we wondered if the protein was able to reverse a preformed amyloid fibril into oligomeric/monomeric forms. To understand this, we aggregated Aβ25−35 alone for 24 h and then incubated it for 72 h in the presence of increasing concentrations of ERp57, assessing every 24 h the state of aggregation by thioflavin T assay (Figure 5c). […] Probably this phenomenon could be because of the fact that the presence of a protein capable of interacting with Aβ25−35 (given the previous experiments) can favor to the maintenance of Aβ25−35 in solution, facilitating the process of aggregation. […]

α‐synuclein = conditions: 1:50 molar ratio; ref Serrano et al., [2020]; cited from earlier work
Source text: We thus hypothesize that the mechanism by which ERp57 exerts its neuroprotective action resides in ERp57 impairment of peptide aggregation, rather than in disaggregation of existing fibrils. The inhibition of the aggregation was induced by low amounts of ERp57 protein, present in the reaction mixture in a very low molar ratio compared to the peptide (1:250), in line with the experiments conducted by Serr ...

Aβ peptide = conditions: cerebrospinal fluid of healthy people; ref Erickson et al., [2005]; cited from earlier work
Source text: ERp57 is an endoplasmic reticulum disulfide isomerase which modulates folding of newly synthesized glycoproteins by recognizing and interacting with peptides or incorrectly folded proteins, thereby promoting formation of disulfide bonds and correct protein folding (Torres et al., [2015]). Conversely, Aβ is a small peptide that, because of its intrinsic characteristics, tends to aggregate and to escape the ER‐associated degradation process (ERAD) (Holtzman, [2013]). Eventually, monomeric Aβ is released out of the cell and begins its slow aggregation into fibrils that will form the template for ...

Aβ25−35 = assay: Thioflavin-T assay, Aβ25−35 aggregation (co-incubation); assay type: biochemical; conditions: 1:250 protein/Aβ25−35 molar ratio (4 μM / 1 mM), up to 72 h, 4°C, ThT read at 485 nm, n = 6
Experimental: The amyloid peptide Aβ25−35 was synthesized by conventional solid‐phase chemistry (Atherton & Sheppard, [1990]), and stored at −20°C. The peptide was resuspended in 1,1,1,3,3,3‐Hexafluoro‐2‐propanol (Sigma®, catalog number #105228), incubated for 1 h with gentle shaking at 4°C, then aliquoted and dried in speedVac for 20 min. The aliquots were stored under a vacuum glass bell. The day before being used, aliquots were resuspended in phosphate‐buffered saline (PBS) at a final concentration of 1 mM, incubated in a ultrasonic bath on ice for 30 min to induce aggregation, followed by gentle shaking at 4°C overnight. Aβ25−35 was diluted in culture medium at a final concentration of 30 μM for cell treatments. Aggregation of Aβ25−35 in the presence of ERp57 was obtained as follows: dried aliquots of Aβ25−35 were resuspended in PBS. […]
Thioflavin‐T assay was used to assess the aggregation of the Aβ25−35. […] The assay was performed using a spectrofluorometer Spex Fluoromax® at 25°C; the excitation wavelength was set at 440 nm (5 nm band width) and the fluorescence was measured between 450 and 520 nm (5 nm band width) (Francioso et al., [2020]).

In the case of `C[C@@H]1CC[C@@]2(OC1)O[C@H]1C[C@H]3[C@@H]4CC=C5C[C@@H](O)CC[C@]5(C)[C@H]4CC[C@]3(C)[C@H]1[C@@H]2C` [diosgenin], the “object recognition memory; amyloid plaques and neurofibrillary tangles” value (AD 5XFAD mice model) is listed as “significantly improves performance of object recognition memory and reduces amyloid plaques and neurofibrillary tangles”.

For PDI: protein disulfide isomerase, the “effect on tau fibril formation” value (tau) is given as “able to reduce the formation of tau fibrils”.

For `CC[C@H](C)[C@H](NC(=O)[C@H](C)NC(=O)CNC(=O)[C@H](CCCCN)NC(=O)[C@H](CC(N)=O)NC(=O)[C@H](CO)NC(=O)CN)C(=O)N[C@H](C(=O)NCC(=O)N[C@@H](CC(C)C)C(=O)N[C@@H](CCSC)C(=O)O)[C@@H](C)CC` [Aβ25−35] (H-GSNKGAIIGLM-OH), the “toxicity of Aβ25−35 bound by ERp57” value (SH‐SY5Y cells; Aβ25−35 aggregated with ERp57) was “no longer leads to toxicity” and the Kd (ERp57) was 33 ± 2 µM.

B1: ERp57: thiol oxidoreductase with Protein Disulfide Isomerase activity; human recombinant PDIA3 expressed in E. coli (protein)
chain: T1 sequence (P30101 25-505)
In the case of B1, the “interaction with full-length APP” value (full‐length APP) is given as “interacts with full‐length APP”, the “interaction with c99 fragment of APP” value (c99 fragment of APP) is given as “does not interact with the c99 fragment of APP” and the “ThT fluorescence intensity of pre-aggregated Aβ25−35” value (pre‐aggregated Aβ25−35) is given as “increased in a dose‐dependent manner”. For the same molecule, the “reversal of preformed amyloid” value (pre‐aggregated Aβ25−35) was “not able to reverse the amyloid aggregation; also recorded: not able to disassemble pre‐aggregated Aβ25−35; also recorded: fails to disaggregate a fibril”, the “effect on α-synuclein aggregation” value (α‐synuclein) was “able to reduce the aggregation of α‐synuclein in a very efficient manner” and the “cell viability (with Aβ25−35)” value (SH‐SY5Y cells; 30 μM Aβ25−35 aggregated 72 h with 0.12 μM protein (1:250), 24 h treatment, MTT, n = 4) was “counteracts the toxic effects of Aβ25−35 and restores cellular viability; also recorded: significant increase in cell viability; also recorded: their viability was preserved”. For the same molecule, the “cell viability (protein alone)” value (SH‐SY5Y cells; protein alone, without Aβ25−35, 24 h, MTT, n = 4) was “no effect on cell viability”, the “complex of ERp57 with Aβ” value (Aβ peptide) was “linked to Aβ in the cerebrospinal fluid of healthy people” and the “effect on Aβ25−35 aggregation (ThT fluorescence)” value (Aβ25−35) was “a marked reduction in the fluorescence signal; also recorded: completely blocks this process; also recorded: strongly reduced the aggregation of the peptide”.
